# According to the supplement of paper PMC10126150:
# ± gives the standard deviation of the averaged measurements.
# System: ATP
# Experiment: switch fluorescence ratio, 500 uM ATP over buffer (Cy3 cluster intensity, sum of 5 cycles each) (fold (ratio)); higher = stronger signal-on switching upon ATP binding; sequences stand for … in TCGTCGGCAGCGTCAGATGTGTATAAGAGACAGTTTTTTTTTTTTTTTTTTTTTTTTT…TC
# Conditions: aptamer strand: ATP DNA aptamer (quencher-CACCTGGGGGAGTATTGCGGAGGAAGG + anchor), 100 nM annealed; ATP concentration: 500 uM
# Summary of the method: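 Five buffer/ATP imaging cycles were run on Cy3-labelled switching-strand clusters on a modified Illumina MiSeq flow-cell, with NaOH stripping and re-annealing between cycles. In each cycle, clusters annealed to 100 nM quencher-labelled ATP aptamer were imaged in selection buffer, then after 15 min with 500 uM ATP at 22 °C. Per cluster, the fluorescence ratio is summed target-cycle over summed buffer-cycle Cy3 intensity, averaged per switch-domain sequence. Only clusters within 100-1000 RFU were kept.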
# 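Also: ATP exposure 15 min at 22 °C before imaging.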
row,Sequence,switch fluorescence ratio
1,GTAATTGCGG,0.9765 ± 0.0056
2,TTCCACATCC,1.07 ± 0.044
3,TTCCAGATTT,1.02 ± 0.062
4,TAGTCGAGAT,0.989 ± 0.029
5,ATGGATTGGC,1.08 ± 0.035
6,TCGATCGCTA,1.43 ± 0.59
7,CCAGCCCGGG,1.008 ± 0.0051
8,TTTTGCCCGG,1.01 ± 0.033
9,GGGACGATTT,0.995 ± 0.017
10,AAACGAAAAA,1.04 ± 0.044
11,ATGTATAGTT,1.02 ± 0.017
12,TTCTTTATCG,1.02 ± 0.073
13,ATTAGCGTTT,0.977 ± 0.066
14,GCTACCCATC,1.1 ± 0.05
15,TGAATAGGAG,1.011 ± 0.0027
16,CAAGGGTTGT,0.992 ± 0.0024
17,ATGGACAATA,1.07 ± 0.026
18,AATGGGTGCA,1.03 ± 0.054
19,CGGCGGGCTG,0.989 ± 0.062
20,GGGGACACGG,1.03 ± 0.016
21,AGTAAGATCA,0.992 ± 0.025
22,AAAAGTAACC,0.993 ± 0.026
23,AAAGGGAAT,1.02 ± 0.021
24,TTTTGGTTTT,1 ± 0.039
25,ATTGACTCAG,1.01 ± 0.012

row,Sequence,switch fluorescence ratio
1,TAGGATAGTG,0.978 ± 0.043
2,GGGGTCGGGA,0.999 ± 0.011
3,ATGAGGGTTT,1.01 ± 0.017
4,TTCGTGCGAT,1.04 ± 0.013
5,GTGTTACTGT,0.959 ± 0.026
6,TGAGGGTCCT,1.02 ± 0.01
7,AGGGCTGCCT,1.05 ± 0.096
8,CAGGGGTTTG,1 ± 0.051
9,GCCGGGTTAT,1.03 ± 0.079
10,AGTTGTGCAG,1.02 ± 0.062
11,AGAATCGTTG,1.005 ± 0.0072
12,TATTTACATT,1.03 ± 0.048
13,GGACGATGGT,1 ± 0.026
14,TCGGAAGGCT,0.999 ± 0.089
15,TCATTGTTGG,1 ± 0.023
16,AAGTGGTGCT,1.024 ± 0.0011
17,TATAGTGGAG,1.024 ± 0.0069
18,ATGAGGGGGT,1.03 ± 0.024
19,ACGGGGGGGT,1.09 ± 0.081
20,GGGGTGCCAG,0.963 ± 0.058
21,GTTGCACTTT,0.983 ± 0.052
22,TGATATCACT,0.996 ± 0.043
23,GGACGTAAGG,0.977 ± 0.016
24,ATAGCTTGGG,0.985 ± 0.017
25,TAGGGGGTTA,0.992 ± 0.046

row,Sequence,switch fluorescence ratio
1,TGGGAGGATT,1 ± 0.027
2,GGGATCTTGA,1.07 ± 0.051
3,ATTCATTTTT,1.004 ± 0.01
4,ACCGGATCGT,0.9828 ± 0.0035
5,GAGGCAAAGT,1.094 ± 0.0059
6,CACAGGAGGG,1.03 ± 0.019
7,CATATGTAGA,0.997 ± 0.023
8,TTTTCCCTGC,1.24 ± 0.11
9,CTTAAATTAA,0.989 ± 0.051
10,AGTTTTTGAT,0.9692 ± 0.0068
11,AAGTTAGGGA,0.919 ± 0.083
12,GGGTAAAGGA,0.985 ± 0.028
13,CGCGATGGGT,1.08 ± 0.033
14,AGGTCACGGC,1 ± 0.034
15,TCGCAGGGGG,0.992 ± 0.043
16,AGGTTAATAG,0.996 ± 0.012
17,TGTTTTTAAG,0.99 ± 0.022
18,ATTTGGTTTC,0.991 ± 0.025
19,CCATCGTAAC,2.28 ± 0.37
20,TCAGAGGGTT,1.01 ± 0.031
21,CGATACGTTG,0.99 ± 0.011
22,ATGGGCTTTG,0.9674 ± 0.0093
23,TTAGGTAGTT,0.971 ± 0.051
24,GTTGGGGATT,0.977 ± 0.016
25,GTGAAAATTT,1.07 ± 0.083

row,Sequence,switch fluorescence ratio
1,CAGGGGGCGA,1.06 ± 0.07
2,CGAGGAAATG,1.06 ± 0.011
3,GCCTATGAGG,0.993 ± 0.038
4,CTACTCTCGC,1.15 ± 0.019
5,TTTAGGGCGG,0.994 ± 0.017
6,GGGATTATGT,0.97 ± 0.015
7,AGTTGCTTTT,0.993 ± 0.036
8,CTATGGGGTT,0.977 ± 0.011
9,TTTGTGTCCG,0.946 ± 0.088
10,GGTTCCACGC,1.09 ± 0.025
11,TTTTGGGTTC,1.03 ± 0.07
12,ATTTGGGGAG,1.02 ± 0.048
13,GCTTTTGCGG,0.981 ± 0.045
14,GGTGATGGTT,0.986 ± 0.047
15,TACTGGCTGC,1.02 ± 0.0078
16,ATCCTTAAGG,0.961 ± 0.026
17,CTGTTAGTTG,0.993 ± 0.019
18,TCTTTGGGGT,1.01 ± 0.012
19,ACGATCTCCA,1.035 ± 0.005
20,CGAATATTGA,0.959 ± 0.038
21,TGAGTATATA,1.02 ± 0.014
22,TGGCCTGGGA,1.026 ± 0.0056
23,ATTAGGGGGG,0.998 ± 0.012
24,CAAGAATGTA,0.973 ± 0.024
25,AAGATGAGTA,0.982 ± 0.032
